According to article PMC11162770, “The mutation R107Q alters mtSSB ssDNA compaction ability and binding dynamics” (Nucleic Acids Research, 2024):

Tests used:
[1] = molecular target: T1, mtSSB WT-Alexa555/647 (human) (UniProt Q04837); experiment: TIRF dissociation; details: EMSA: 20 mM Tris-HCl pH 7.8, 10 mM MgCl2, 0.1 mg/ml BSA, 10 mM DTT, 10% glycerol, 2 mM ATP, room temperature, TIRF: ssDNA diluted in 20 mM TrisOAc pH 8, 20% …
T1 sequence: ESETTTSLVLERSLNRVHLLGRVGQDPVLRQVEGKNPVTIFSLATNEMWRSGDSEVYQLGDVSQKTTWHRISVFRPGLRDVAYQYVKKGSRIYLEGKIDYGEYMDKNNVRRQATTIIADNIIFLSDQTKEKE

[2] = system: mtSSB R107Q-Alexa555/647 (human); experiment: TIRF dissociation; details: unwrapping almost 3 times faster than WT, EMSA: 20 mM Tris-HCl pH 7.8, 10 mM MgCl2, 0.1 mg/ml BSA, 10 mM DTT, 10% glycerol, 2 mM ATP, room temperature, TIRF: ssDNA diluted in 20 mM TrisOAc pH 8, 20% …
[3] = molecular target: T1, mtSSB WT-Alexa555/647 (human); experiment: competition; details: WT-Alexa647 vs R107Q-Alexa555 150 nM each (1:1); 24% of ssDNA WT only, 76% both; EMSA: 20 mM Tris-HCl pH 7.8, 10 mM MgCl2, 0.1 mg/ml BSA, 10 mM DTT, 10% glycerol, 2 mM ATP, room temperature; TIRF: ssDNA diluted in 20 mM TrisOAc pH 8, 20% …
[4] = system: mtSSB R107Q-Alexa555/647 (human); experiment: competition; details: EMSA: 20 mM Tris-HCl pH 7.8, 10 mM MgCl2, 0.1 mg/ml BSA, 10 mM DTT, 10% glycerol, 2 mM ATP
[5] = molecular target: the molecule itself; experiment: mass photometry; Refeyn TwoMP; proteins prepared at 1 uM and diluted to 100 nM before measurement; data collected for one minute; oligomeric state in solution (tetramer)
[6] = molecular target: T2, mtSSB WT (His-tag, C-terminal Cys) (human, UniProt Q04837 17-148); experiment: BLI; 1:1 fit; Discussion swaps the 30/60-nt labels; EMSA: 20 mM Tris-HCl pH 7.8, 10 mM MgCl2, 0.1 mg/ml BSA, 10 mM DTT, 10% glycerol, 2 mM ATP, room temperature; TIRF: ssDNA diluted in 20 mM TrisOAc pH 8, 20% sucrose, 20 mM DTT, NaOAc 0-400 mM added; BLI and AFS buffers not in material; details: protein: recombinant; tags: N-terminal His; extra C-terminal Cys; chain copies: 4; single strand
T2 sequence: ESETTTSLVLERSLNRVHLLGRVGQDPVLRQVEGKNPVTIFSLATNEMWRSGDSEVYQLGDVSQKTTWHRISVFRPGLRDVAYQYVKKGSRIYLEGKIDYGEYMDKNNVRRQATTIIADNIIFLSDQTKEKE

[7] = molecular target: T3, mtSSB R107Q (His-tag, C-terminal Cys) (human, UniProt Q04837 17-148, R107Q); experiment: as above; details: protein: recombinant; tags: N-terminal His; extra C-terminal Cys; chain copies: 4; single strand
T3 sequence: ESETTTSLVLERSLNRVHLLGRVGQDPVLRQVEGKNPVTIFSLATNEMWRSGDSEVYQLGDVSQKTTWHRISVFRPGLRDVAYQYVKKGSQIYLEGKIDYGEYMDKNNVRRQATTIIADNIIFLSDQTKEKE

## lambda ssDNA
[1]; 100 mM NaOAc
  binding signal (% lost after salt): 20
[1]; 400 mM NaOAc
  binding signal (% lost after salt): 20
[2]; 100 mM NaOAc
  binding signal (% lost after salt): 40
[2]; 400 mM NaOAc
  binding signal (% lost after salt): 77
[3]
  binding signal (% of mtSSB on co-coated ssDNA): 73
[4]; R107Q-Alexa555 150 nM vs WT-Alexa647 15 nM (1:0.1), room …, TIRF: ssDNA diluted in 20 mM TrisOAc pH 8, 20% suc
  binding signal (% of mtSSB on co-coated ssDNA): 94
[4]; R107Q-Alexa555 vs WT-Alexa647 150 nM each (1:1), bound only together with WT, room temperature, TIRF: ssDNA diluted in 20 mM TrisOAc pH 8, 20% …
  binding signal (% of ssDNA coated by R107Q only): 0

B1: Mitochondrial single-stranded DNA-binding protein, wild type (mtSSB^WT), lacking the mitochondrial targeting sequence, with N-terminal His-tag and C-terminal … (natural protein, human)
chain: ESETTTSLVLERSLNRVHLLGRVGQDPVLRQVEGKNPVTIFSLATNEMWRSGDSEVYQLGDVSQKTTWHRISVFRPGLRDVAYQYVKKGSRIYLEGKIDYGEYMDKNNVRRQATTIIADNIIFLSDQTKEKEC
notes: one cysteine residue added at the C-terminus for maleimide labelling; not shown: His-tag, N-terminal, kept
[5]
  stoichiometry N: 4

B2: Mitochondrial single-stranded DNA-binding protein variant R107Q (mtSSB^R107Q), lacking the mitochondrial targeting sequence, with N-terminal His-tag and … (natural protein, human)
chain: ESETTTSLVLERSLNRVHLLGRVGQDPVLRQVEGKNPVTIFSLATNEMWRSGDSEVYQLGDVSQKTTWHRISVFRPGLRDVAYQYVKKGSQIYLEGKIDYGEYMDKNNVRRQATTIIADNIIFLSDQTKEKEC
notes: one cysteine residue added at the C-terminus for maleimide labelling; R107Q is a variant found in patients; PDB 6RUP is the wild-type parent's structure; not shown: His-tag, N-terminal, kept
[5]
  stoichiometry N: 4

B3: poly-dT60 (ssDNA)
DNA: TTTTTTTTTTTTTTTTTTTTTTTTTTTTTTTTTTTTTTTTTTTTTTTTTTTTTTTTTTTT
[6]
  Kd: 1.17 ± 0.02 nM
[7]
  Kd: 1.18 ± 0.02 nM

B4: poly-dT30 (ssDNA)
DNA: TTTTTTTTTTTTTTTTTTTTTTTTTTTTTT
[6]
  Kd: 2.18 ± 0.1 nM
[7]
  Kd: 1.35 ± 0.04 nM
